In article PMC7948967, “The heme-binding protein PhuS transcriptionally regulates the Pseudomonas aeruginosa tandem sRNA prrF1,F2 locus”:

What was measured:
Fur = target: T1, Fur (Pseudomonas aeruginosa, UniProt Q03456 1-134); assay: fluorescence anisotropy; 0.1 mM MnSO4; bis-Tris borate pH 7.5, 40 mM KCl; FA: 20 mM Tris-HCl pH 8.0, 100 mM NaCl, 0.05 mg/ml BSA, 10 nM DNA (Fur: 10 mM bis-Tris borate pH 7.5, 40 mM KCl, 0.1 mM MnSO4, 0.1 mg/ml BSA, 10% glycerol), temperature not stated; EMSA: 100 mM Tris pH 8.0, 500 mM NaCl, 10% glycerol, 10 ng/ml salmon sperm DNA, 37 C, 30 pM DNA; details: protein: recombinant; tags: GST removed with thrombin (pGEX-2T); chain copies: 2; label: 5'-6FAM; blunt
T1 sequence: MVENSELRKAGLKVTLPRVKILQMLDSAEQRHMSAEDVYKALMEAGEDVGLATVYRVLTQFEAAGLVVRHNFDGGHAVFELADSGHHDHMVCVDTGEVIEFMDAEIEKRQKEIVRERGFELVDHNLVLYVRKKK

PhuS [1] = target: T2, PhuS (Pseudomonas aeruginosa PAO1, UniProt O68880 1-354); assay: fluorescence anisotropy; apo-PhuS; much smaller anisotropy change; FA: 20 mM Tris-HCl pH 8.0, 100 mM NaCl, 0.05 mg/ml BSA, 10 nM DNA (Fur: 10 mM bis-Tris borate pH 7.5, 40 mM KCl, 0.1 mM MnSO4, 0.1 mg/ml BSA, 10% glycerol), temperature not stated; EMSA: 100 mM Tris pH 8.0, 500 mM NaCl, 10% glycerol, 10 ng/ml salmon sperm DNA, 37 C, 30 pM DNA; details: protein: recombinant; tags: none; label: 5'-6FAM; blunt
PhuS [2] = target: T2, PhuS; assay: fluorescence anisotropy; apo-PhuS; FA: 20 mM Tris-HCl pH 8.0, 100 mM NaCl, 0.05 mg/ml BSA, 10 nM DNA (Fur: 10 mM bis-Tris borate pH 7.5, 40 mM KCl, 0.1 mM MnSO4, 0.1 mg/ml BSA, 10% glycerol), temperature not stated; EMSA: 100 mM Tris pH 8.0, 500 mM NaCl, 10% glycerol, 10 ng/ml salmon sperm DNA, 37 C, 30 pM DNA; details: protein: recombinant; tags: none; label: 5'-6FAM; blunt
PhuS H212R = PhuS H212R (Pseudomonas aeruginosa PAO1, UniProt O68880 1-354, H212R); assay: fluorescence anisotropy; apo-PhuS H212R; FA: 20 mM Tris-HCl pH 8.0, 100 mM NaCl, 0.05 mg/ml BSA, 10 nM DNA (Fur: 10 mM bis-Tris borate pH 7.5, 40 mM KCl, 0.1 mM MnSO4, 0.1 mg/ml BSA, 10% glycerol), temperature not stated; EMSA: 100 mM Tris pH 8.0, 500 mM NaCl, 10% glycerol, 10 ng/ml salmon sperm DNA, 37 C, 30 pM DNA; details: protein: recombinant; tags: none; label: 5'-6FAM; blunt

B1: prrF1-30 (dsDNA)
DNA 1: GACATGGAAATGAGAATCATTATTATGTCA
DNA 2: TGACATAATAATGATTCTCATTTCCATGTC
Question: With B1 as the binder, how does the Kd (Fur) read?
Answer: 50 ± 10 nM

Question: What about the Kd (PhuS [1]) of the same binder?
Answer: > 2000 nM

B2: prrF1-50 (No Fur) (dsDNA)
DNA 1: ATTCCAGAGGGCTCGCGACTAGCTAGCAGAAAAGTTTGGCGAAAGCGTTT
DNA 2: AAACGCTTTCGCCAAACTTTTCTGCTAGCTAGTCGCGAGCCCTCTGGAAT
Question: Does B2 bind (PhuS [2])?
Answer: no binding

B3: prrF2-50 (Fur) (dsDNA)
DNA 1: ATGAGAACCGGCTTGACCTGATAATGAGAATAGTTATTATTACACCAACT
DNA 2: AGTTGGTGTAATAATAACTATTCTCATTATCAGGTCAAGCCGGTTCTCAT
Question: Does B3 bind (PhuS [2])?
Answer: no binding

B4: prrF1-50 (FAM) (dsDNA)
DNA 1: AGCAGAAAAGTTTGGCGAAAGCGTTTGACATGGAAATGAGAATCATTATT
DNA 2: AATAATGATTCTCATTTCCATGTCAAACGCTTTCGCCAAACTTTTCTGCT
Question: What does the source list for B4?
Answer: Kd (PhuS H212R): 90 ± 30 nM; Kd (PhuS [2]): 64 ± 10 nM
